T1: hDcr-CΔRBD, hDcr-C lacking the C-terminal dsRBD (1235-1844), bacterially expressed (human, UniProt Q9UPY3 1235-1844)
T1 construct: also called hDcr-CARBD
T1 sequence: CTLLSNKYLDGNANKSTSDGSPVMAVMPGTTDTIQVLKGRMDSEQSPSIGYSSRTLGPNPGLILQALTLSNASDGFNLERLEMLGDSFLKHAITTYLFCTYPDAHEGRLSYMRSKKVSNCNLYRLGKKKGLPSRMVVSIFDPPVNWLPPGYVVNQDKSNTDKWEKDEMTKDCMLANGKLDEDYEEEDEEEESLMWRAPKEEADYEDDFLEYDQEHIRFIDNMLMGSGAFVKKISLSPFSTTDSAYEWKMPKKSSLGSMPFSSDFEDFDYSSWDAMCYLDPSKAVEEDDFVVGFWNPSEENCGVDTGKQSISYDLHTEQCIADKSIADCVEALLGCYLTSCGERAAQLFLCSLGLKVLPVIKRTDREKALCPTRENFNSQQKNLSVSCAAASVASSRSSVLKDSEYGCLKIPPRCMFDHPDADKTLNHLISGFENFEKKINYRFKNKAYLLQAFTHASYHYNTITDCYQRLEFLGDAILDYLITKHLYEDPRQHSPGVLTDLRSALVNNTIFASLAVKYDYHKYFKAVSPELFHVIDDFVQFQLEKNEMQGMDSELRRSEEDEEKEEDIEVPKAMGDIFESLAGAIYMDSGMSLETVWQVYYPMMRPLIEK

T2: hDcr-C, C-terminal fragment of human Dicer (1235-1922), bacterially expressed (human, UniProt Q9UPY3 1235-1922)
T2 construct: Expressed in E. coli from the pHMGWA-His6-MBP destination vector via pENTR/TEV/D-TOPO
T2 sequence: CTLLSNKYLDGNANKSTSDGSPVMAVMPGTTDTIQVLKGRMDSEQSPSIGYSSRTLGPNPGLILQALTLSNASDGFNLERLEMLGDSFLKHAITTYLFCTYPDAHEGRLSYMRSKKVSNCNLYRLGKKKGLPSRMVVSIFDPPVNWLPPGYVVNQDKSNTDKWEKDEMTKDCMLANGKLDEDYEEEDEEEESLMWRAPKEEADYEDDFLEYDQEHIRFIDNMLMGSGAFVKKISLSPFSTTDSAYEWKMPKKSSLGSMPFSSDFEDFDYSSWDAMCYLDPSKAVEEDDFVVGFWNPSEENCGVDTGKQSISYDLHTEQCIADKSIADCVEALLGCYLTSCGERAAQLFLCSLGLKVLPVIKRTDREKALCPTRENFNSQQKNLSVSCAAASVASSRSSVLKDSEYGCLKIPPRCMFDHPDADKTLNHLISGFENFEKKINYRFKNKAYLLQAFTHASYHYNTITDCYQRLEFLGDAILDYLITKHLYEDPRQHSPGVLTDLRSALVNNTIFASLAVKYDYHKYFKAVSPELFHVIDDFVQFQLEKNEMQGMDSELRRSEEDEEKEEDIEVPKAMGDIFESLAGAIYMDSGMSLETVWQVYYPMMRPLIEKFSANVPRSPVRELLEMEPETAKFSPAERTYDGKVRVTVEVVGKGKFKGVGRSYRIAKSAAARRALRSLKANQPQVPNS

T3: hDcr-C (RNase IIIa/IIIb-dsRBD) fragment of human Dicer (Homo sapiens, UniProt Q9UPY3 SEQ:1235-1922)
T3 chain: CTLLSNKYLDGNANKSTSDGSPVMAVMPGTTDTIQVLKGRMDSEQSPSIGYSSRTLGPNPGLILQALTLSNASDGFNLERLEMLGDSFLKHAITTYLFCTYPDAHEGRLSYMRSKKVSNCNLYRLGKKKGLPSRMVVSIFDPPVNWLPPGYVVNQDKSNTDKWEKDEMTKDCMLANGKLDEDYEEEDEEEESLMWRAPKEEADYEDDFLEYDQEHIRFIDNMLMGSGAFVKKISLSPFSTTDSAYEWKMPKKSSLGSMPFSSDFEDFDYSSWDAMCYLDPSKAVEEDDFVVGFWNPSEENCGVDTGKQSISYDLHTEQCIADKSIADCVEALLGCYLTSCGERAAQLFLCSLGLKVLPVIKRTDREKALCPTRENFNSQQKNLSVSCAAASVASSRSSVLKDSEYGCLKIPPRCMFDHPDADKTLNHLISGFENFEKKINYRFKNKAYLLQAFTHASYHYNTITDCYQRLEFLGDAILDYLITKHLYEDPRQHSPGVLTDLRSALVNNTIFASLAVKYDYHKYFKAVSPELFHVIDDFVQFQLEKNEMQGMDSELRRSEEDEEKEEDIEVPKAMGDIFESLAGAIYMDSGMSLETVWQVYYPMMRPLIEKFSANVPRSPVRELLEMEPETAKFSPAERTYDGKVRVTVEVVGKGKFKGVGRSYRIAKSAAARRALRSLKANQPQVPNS

T4: MBP-ATPase/helicase fragment of human Dicer (Homo sapiens, UniProt Q9UPY3 SEQ:1-604)
T4 chain: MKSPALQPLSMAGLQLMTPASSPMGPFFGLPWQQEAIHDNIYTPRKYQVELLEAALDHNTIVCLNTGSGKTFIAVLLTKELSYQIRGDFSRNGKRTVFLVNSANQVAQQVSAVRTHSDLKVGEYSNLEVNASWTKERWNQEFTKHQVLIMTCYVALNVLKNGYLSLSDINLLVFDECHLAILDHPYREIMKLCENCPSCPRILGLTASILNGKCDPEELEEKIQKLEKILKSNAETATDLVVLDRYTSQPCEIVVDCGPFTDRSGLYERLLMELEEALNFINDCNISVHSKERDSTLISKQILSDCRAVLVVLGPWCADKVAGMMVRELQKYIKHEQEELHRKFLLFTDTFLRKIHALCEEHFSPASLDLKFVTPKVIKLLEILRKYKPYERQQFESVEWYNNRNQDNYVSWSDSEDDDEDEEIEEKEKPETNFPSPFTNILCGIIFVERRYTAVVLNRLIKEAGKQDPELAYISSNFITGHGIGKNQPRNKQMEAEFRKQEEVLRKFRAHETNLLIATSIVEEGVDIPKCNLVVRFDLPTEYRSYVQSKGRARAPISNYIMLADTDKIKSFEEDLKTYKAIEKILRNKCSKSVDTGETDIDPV

T5: hDcr-CΔRBD fragment of human Dicer (Homo sapiens, UniProt Q9UPY3 SEQ:1235-1844)
T5 chain: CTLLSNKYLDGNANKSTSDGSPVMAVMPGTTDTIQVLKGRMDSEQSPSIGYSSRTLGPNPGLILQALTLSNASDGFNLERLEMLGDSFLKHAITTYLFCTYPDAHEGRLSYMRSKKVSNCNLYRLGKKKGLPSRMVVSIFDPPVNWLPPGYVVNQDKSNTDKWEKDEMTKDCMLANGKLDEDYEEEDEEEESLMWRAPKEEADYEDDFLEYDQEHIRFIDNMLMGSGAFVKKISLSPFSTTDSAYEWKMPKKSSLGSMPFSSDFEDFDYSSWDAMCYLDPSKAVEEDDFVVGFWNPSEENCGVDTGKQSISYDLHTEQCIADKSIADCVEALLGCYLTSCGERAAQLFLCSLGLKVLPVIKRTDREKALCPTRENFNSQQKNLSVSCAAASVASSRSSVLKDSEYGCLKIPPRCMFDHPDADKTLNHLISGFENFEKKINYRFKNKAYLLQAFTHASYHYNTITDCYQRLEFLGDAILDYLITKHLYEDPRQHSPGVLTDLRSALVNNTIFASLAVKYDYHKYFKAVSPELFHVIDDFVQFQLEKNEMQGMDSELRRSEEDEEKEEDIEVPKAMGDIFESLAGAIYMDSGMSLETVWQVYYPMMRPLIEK


How the values were obtained:
[1] = target: T1, hDcr-CΔRBD, hDcr-C lacking the …; assay: complex formation; method not detailed
[2] = target: T2, hDcr-C, C-terminal fragment of human …; assay: size-exclusion chromatography after incubation without RNA
Experimental: To assess the role of the PAZ domain in determining Dicer cleavage product length, an attempt was made to express the PAZ domain alone in E. coli. Although this was unsuccessful, a construct including both the PAZ domain and the adjacent DUF283 region yielded soluble protein (hereafter the tandem construct named DP, FIG. 2A). […] To test for a direct protein-protein interaction, hDcr-C and DP polypeptides were incubated together in the absence of RNA and then analyzed by size exclusion chromatography.
DP forms a stable complex with hDcr-C. A pre-incubated mixture of the hDcr-C fragment with 3-fold excess of DP was analyzed with a Superdex 200 size-exclusion column (top panel, elution profile).

[3] = target: T3, hDcr-C (RNase IIIa/IIIb-dsRBD) fragment …; assay: filter; out of detectable limit; almost no binding; details: tags: expressed from pHMGWA-His6-MBP vector, E. coli; label: 5'-32P on one strand; siRNA duplex, 19 bp, Dicer product mimic
Experimental: (§1) Filter binding assays of hDcr and different hDcr fragments were performed in the same way as previously described (7). Briefly, serial dilutions of hDcr protein were incubated in a buffer containing 20 mM Tris-HCl (pH 7.5), 25 mM NaCl, 5 mM EDTA, 1 mM dithiothreitol (DTT), 1% glycerol and ˜0.5-1 nM (1500 CPM) of 5′-end ³²P-labeled duplex RNA substrate (one strand was labeled) at room temperature for 60 min in a 30 μl of total volume. Following incubation, a 25 μl aliquot of each reaction was applied to a dot-blot apparatus equipped with three membranes: Tuffryn, Protran and Nytran (from top to bottom). After drying, the bound (on Protran) or free (on Nytran) RNAs were quantified by a Phosphorimager (GE Healthcare). Percent bound RNA, calculated as the ratio of radioactivity detected on the Protran membrane over the total input radioactivity, was plotted as a function of protein concentration. Kd was determined by global fitting to the equation: kobsd=(kₘₐₓ[…]) (Kd+[Dicer])−1, where kobsd is the observed rate constant at a given protein concentration, kₘₐₓ is the maximal rate constant with saturating protein, and Kd is the protein concentration that provides half the maximal rate. Curve fitting was conducted with KaleidaGraph (Synergy Software, Reading, Pa.). […]

[4] = target: T4, MBP-ATPase/helicase fragment of human …; assay: filter; out of detectable limit; 5 mM EDTA; details: tags: His6-MBP N-terminal fusion (pHMGWA), E. coli; label: 5'-32P on one strand; siRNA duplex, 19 bp, Dicer product mimic
Experimental: as §1

[5] = target: T5, hDcr-CΔRBD fragment of human Dicer; assay: filter; out of detectable limit; details: tags: expressed from pHMGWA-His6-MBP vector, E. coli; label: 5'-32P on one strand; siRNA duplex, 19 bp, Dicer product mimic
Experimental: Filter binding assays of hDcr and different hDcr fragments were performed in the same way as previously described (7). Briefly, serial dilutions of hDcr protein were incubated in a buffer containing 20 mM Tris-HCl (pH 7.5), 25 mM NaCl, 5 mM EDTA, 1 mM dithiothreitol (DTT), 1% glycerol and ˜0.5-1 nM (1500 CPM) of 5′-end ³²P-labeled duplex RNA substrate (one strand was labeled) at room temperature for 60 min in a 30 μl of total volume. Following incubation, a 25 μl aliquot of each reaction was applied to a dot-blot apparatus equipped with three membranes: Tuffryn, Protran and Nytran (from top to bottom). After drying, the bound (on Protran) or free (on Nytran) RNAs were quantified by a Phosphorimager (GE Healthcare). Percent bound RNA, calculated as the ratio of radioactivity detected on the Protran membrane over the total input radioactivity, was plotted as a function of protein concentration. Kd was determined by global fitting to the equation: kobsd=(kₘₐₓ[…]) (Kd+[Dicer])−1, where kobsd is the observed rate constant at a given protein concentration, kₘₐₓ is the maximal rate constant with saturating protein, and Kd is the protein concentration that provides half the maximal rate. Curve fitting was conducted with KaleidaGraph (Synergy Software, Reading, Pa.).
To establish the relationship between cleavage activity and substrate binding, nitrocellulose filter-binding assays were performed with three kinds of RNAs under non-cleavage conditions: substrate dsRNA ([…]), Dicer product-mimic dsRNA (19-bp) and a pre-miRNA (pre-hlet-7a-1).

| Binder | binding result [1] | binding result [2] | binding result [3] | binding result [4] | binding result [5] |
| --- | --- | --- | --- | --- | --- |
| DP, tandem DUF283-PAZ domains of human Dicer (605-1068), bacterially expressed (other, Expressed in E. coli from the pHMGWA-His6-MBP vector; also called middle domains of hDcr) MDDDDVFPPYVLRPDDGGPRVTINTAIGHINRYCARLPSDPFTHLAPKCRTRELPDGTFYSTLYLPINSPLRASIVGPPMSCVRLAERVVALICCEKLHKIGELDDHLMPVGKETVKYEEELDLHDEEETSVPGRPGSTKRRQCYPKAIPECLRDSYPRPDQPCYLYVIGMVLTTPLPDELNFRRRKLYPPEDTTRCFGILTAKPIPQIPHFPVYTRSGEVTISIELKKSGFMLSLQMLELITRLHQYIFSHILRLEKPALEFKPTDADSAYCVLPLNVVNDSSTLDIDFKFMEDIEKSEARIGIPSTKYTKETPFVFKLEDYQDAVIIPRYRNFDQPHRFYVADVYTDLTPLSKFPSPEYETFAEYYKTKYNLDLTNLNQPLLDVDHTSSRLNLLTPRHLNQKGKALPLSSAEKRKAKWESLQNKQILVPELCAIHPIPASLWRKAVCLPSILYRLHCLLTAE | binds | binds |  |  |  |
| 21ab (dsRNA) RNA 1: UAUACAAUGUGCUAGCUUUCU RNA 2: AAAGCUAGCACAUUGUAUAGU |  |  | no binding | no binding | no binding |

Source: patent US20130196383A1, “Method of Producing Dicer” (published 2013)
